Laboratory results taken from paper PMC10645843, “Fungal secondary metabolism is governed by an RNA-binding protein CsdA/RsdA complex” (Nature Communications, 2023).

T1: RsdA-His (PFICI_10532), recombinant (Pestalotiopsis fici, UniProt W3WX91 1-730)
T1 construct: RsdA, regulator of secondary metabolism and development, Pestalotiopsis fici, locus PFICI_10532; open reading frame amplified from P. fici cDNA; RsdA-His printed as 80.4 kDa; Printed as RsdA-His; vector pET28a (His6-tag); also called PfRsdA; RsdA-His protein; source: E. coli BL21 (plasmid pYZS42, pET28a), purified (Ni-NTA resin)
T1 sequence (looked up): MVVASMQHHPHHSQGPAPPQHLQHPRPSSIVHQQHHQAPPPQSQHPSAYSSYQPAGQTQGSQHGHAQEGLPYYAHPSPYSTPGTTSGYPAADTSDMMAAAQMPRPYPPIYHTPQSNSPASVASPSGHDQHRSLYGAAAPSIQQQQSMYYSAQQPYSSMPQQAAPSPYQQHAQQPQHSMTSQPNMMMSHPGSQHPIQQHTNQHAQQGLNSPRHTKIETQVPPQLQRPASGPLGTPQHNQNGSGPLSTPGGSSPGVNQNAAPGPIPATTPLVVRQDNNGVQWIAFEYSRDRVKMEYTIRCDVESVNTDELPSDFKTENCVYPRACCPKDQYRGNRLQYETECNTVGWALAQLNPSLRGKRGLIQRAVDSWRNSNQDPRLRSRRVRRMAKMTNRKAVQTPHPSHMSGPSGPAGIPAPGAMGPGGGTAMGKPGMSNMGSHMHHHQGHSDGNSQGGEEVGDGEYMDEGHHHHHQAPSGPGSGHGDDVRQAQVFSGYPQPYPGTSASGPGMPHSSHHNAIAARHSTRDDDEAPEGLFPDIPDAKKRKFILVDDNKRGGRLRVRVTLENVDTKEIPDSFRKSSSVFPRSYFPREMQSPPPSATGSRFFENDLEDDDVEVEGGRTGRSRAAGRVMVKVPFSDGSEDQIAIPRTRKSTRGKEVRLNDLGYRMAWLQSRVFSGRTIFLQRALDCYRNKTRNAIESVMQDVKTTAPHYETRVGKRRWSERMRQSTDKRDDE

T2: GST-CsdA (Pestalotiopsis fici CGMCC3.15140, UniProt W3WSJ8 1-634)
T2 sequence: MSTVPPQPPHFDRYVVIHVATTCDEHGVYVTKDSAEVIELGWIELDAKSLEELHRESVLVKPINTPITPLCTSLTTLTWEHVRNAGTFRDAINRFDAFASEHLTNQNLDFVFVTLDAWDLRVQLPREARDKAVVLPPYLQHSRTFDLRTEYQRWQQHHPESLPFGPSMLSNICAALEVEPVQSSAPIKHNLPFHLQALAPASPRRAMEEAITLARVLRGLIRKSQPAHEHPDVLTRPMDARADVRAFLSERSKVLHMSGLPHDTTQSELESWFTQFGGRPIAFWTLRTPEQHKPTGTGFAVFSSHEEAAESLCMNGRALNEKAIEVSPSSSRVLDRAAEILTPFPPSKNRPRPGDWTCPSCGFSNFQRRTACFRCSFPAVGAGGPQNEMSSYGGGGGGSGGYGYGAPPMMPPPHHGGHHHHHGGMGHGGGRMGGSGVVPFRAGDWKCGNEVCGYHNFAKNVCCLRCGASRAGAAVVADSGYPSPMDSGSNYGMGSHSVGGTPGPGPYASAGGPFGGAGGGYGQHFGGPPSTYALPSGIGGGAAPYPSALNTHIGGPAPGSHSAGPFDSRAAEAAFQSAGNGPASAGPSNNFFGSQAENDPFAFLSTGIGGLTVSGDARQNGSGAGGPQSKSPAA

B1: GST-CsdA (PFICI_10709), recombinant (natural protein, Pestalotiopsis fici, UniProt W3WSJ8 1-634, looked up)
chain: T2 sequence
notes: open reading frame amplified from P. fici cDNA; CsdA said to contain 730 amino acids; GST-CsdA printed as 93.6 kDa; Printed as GST-CsdA; vector pGEX-4T (GST-tag); also called PfCsdA; GST-CsdA protein; source: E. coli BL21 (plasmid pYSZL6, pGEX-4T), purified (GST-tag resin)

Assays:
[1] = molecular target: T1, RsdA-His (PFICI_10532), recombinant; test: pull-down; His pull-down: RsdA-His (or RsdA^ΔC-terminal-His) held on Ni-NTA resin, purified GST-CsdA or its deletion forms added, overnight at 4 °C; binding buffer 50 mM Tris, 250 mM NaCl, 0.2% glycerol, 5 mM DTT, 0.6% Triton X-100, 1 mM PMSF, pH 7.5; wash with 1% Triton X-100; western blot with anti-His and anti-GST; settings: both partners purified
GST-CsdA [2] = molecular target: T2, GST-CsdA; test: ITC; EMSA: Beyotime EMSA kit buffer, 20 min at 25 C, 6% polyacrylamide gel; ITC: 200 uM RNA into 50 uM CsdA, 25 C, buffer not stated (protein elution buffer 50 mM Tris, 150 mM NaCl, 10 mM GSH, pH 8.0); settings: protein: recombinant; tags: GST (N-terminal, pGEX-4T; pYSZL6)
GST-CsdA [3] = molecular target: T2, GST-CsdA; test: EMSA; EMSA: Beyotime EMSA kit buffer, 20 min at 25 C, 6% polyacrylamide gel; ITC: 200 uM RNA into 50 uM CsdA, 25 C, buffer not stated (protein elution buffer 50 mM Tris, 150 mM NaCl, 10 mM GSH, pH 8.0); settings: protein: recombinant; tags: GST (N-terminal, pGEX-4T; pYSZL6); label: biotin

Row | Binder | Kd (GST-CsdA [2]) | other results
1 | B1 |  | binding result [1]: binds
2 | GUCGGUAU (ssRNA) [1xGUCGGUAU RNA (ITC)] | 19.7 ± 3.67 µM | 
3 | CCAGGGAGGUGAAGAAGUCGGUAUGUUUCACCAGAUGUGAU (ssRNA) [rsdA intron 2 5' splice site RNA (EMSA probe)] |  | binding result (GST-CsdA [3]): binds
4 | GUCGGUAUCGUCGGUAUGGUCGGUAUUGUCGGUAU (ssRNA) [4xGUCGGUAU RNA (ITC)] | 10.5 ± 5.12 µM | 
